The subject of series [1] is HeLa Kyoto. Kind of series: thermal stability score vs G1/S (z-score of summed log2 fold changes over temperatures); higher = more thermally stable than in G1/S.
Series [2] has as its system HeLa Kyoto. Kind of series: solubility change mitosis vs G1/S (difference of NP-40 vs SDS log2 ratios) (log2 ratio difference); higher = more soluble in mitosis.
Series [3] relates to HeLa Kyoto. Description: solubility in G1/S (NP-40 vs SDS abundance) (log2 ratio); higher = more soluble. As to conditions: cell cycle stage: G1/S.
Series [4] relates to HeLa Kyoto. Description: melting temperature (median over replicates), in situ; higher = more thermally stable.
Where [5] appears, read: cell cycle stage: early G1 (4.5 h after nocodazole release).
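Throughout, for melting temperature (median over replicates), in situ: HeLa Kyoto cells synchronized by double thymidine or nocodazole block, proteins quantified by TMT10plex mass spectrometry, three independent biological replicates.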
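Throughout, for solubility change mitosis vs G1/S (difference of NP-40 vs SDS log2 ratios): synchronized HeLa Kyoto cells (double thymidine block for G1/S, nocodazole release for mitosis), protein amounts in NP-40 versus SDS lysates quantified by mass spectrometry, three biological replicates.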
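Throughout, for solubility in G1/S (NP-40 vs SDS abundance): HeLa Kyoto cells arrested at G1/S by double thymidine block, proteins quantified by TMT10plex mass spectrometry in mild NP-40 versus SDS extracts, three biological replicates.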
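Throughout, for thermal stability score vs G1/S (z-score of summed log2 fold changes over temperatures): synchronized HeLa Kyoto cells, proteins quantified by TMT10plex mass spectrometry, three biological replicates, mitosis taken 0.5 h after nocodazole release, G1/S directly after double thymidine block.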

Take “MSVGCACPGCSSKSFKLYSPKEPPNGNAFPPFHPGTMLDRDVGPTPMYPPTYLEPGIGRHTPYGNQTDYRIFELNKRLQNWTEECDNLWWDAFTTEFFEDDAMLTITFCLEDGPKRYTIGRTLIPRYFRSIFEGGATELYYVLKHPKEAFHSNFVSLDCDQGSMVTQHGKPMFTQVCVEGRLYLEFMFDDMMRIKTWHFSIRQHRELIPRSILAMHAQDPQMLDQLSKNITRCGLSNSTLNYLRLCVILEPMQELMSRHKTYSLSPRDCLKTCLFQKWQRMVAPPAEPTRQQPSKRRKRKMSGGSTMSSGGGNTNNSNSKKKSPASTFALSSQVPDVMVVGEPTLMGGEFGDEDERLITRLENTQFDAANGIDDEDSFNNSPALGANSPWNSKPPSSQESKSENPTSQASQ [LDB1]”: the values for the thermal stability score in series [1] (setting [5]) and in series [1] (cell cycle stage: mitosis) were -3.74 and -2.44, respectively. For the same sequence, the “solubility change mitosis (log2)” value in series [2] is -0.0611. The “solubility in G1/S (log2)” value in series [3] was -0.0659. Further, the melting temperature in series [4] (cell cycle stage: G1/S) came out at 54.2 °C; in series [4] (cell cycle stage: mitosis), 55.8 °C.
Turning to “MSVGFIGAGQLAYALARGFTAAGILSAHKIIASSPEMNLPTVSALRKMGVNLTRSNKETVKHSDVLFLAVKPHIIPFILDEIGADVQARHIVVSCAAGVTISSVEKKLMAFQPAPKVIRCMTNTPVVVQEGATVYATGTHALVEDGQLLEQLMSSVGFCTEVEEDLIDAVTGLSGSGPAYAFMALDALADGGVKMGLPRRLAIQLGAQALLGAAKMLLDSEQHPCQLKDNVCSPGGATIHALHFLESGGFRSLLINAVEASCIRTRELQSMADQEKISPAALKKTLLDRVKLESPTVSTLTPSSPGKLLTRSLALGGKKD [PYCR2]”, the thermal stability score is 1.32 in series [1] (setting [5]) and -3.51 in series [1] (cell cycle stage: mitosis). Besides, in series [2], the “solubility change mitosis (log2)” value was -0.0672. In addition, the “solubility in G1/S (log2)” value in series [3] was determined as 0.291. Also, the melting temperature in series [4] (cell cycle stage: G1/S) was determined as 54.9 °C; in series [4] (cell cycle stage: mitosis), 54.5 °C.
Regarding “MSVTLHTDVGDIKIEVFCERTPKTCENFLALCASNYYNGCIFHRNIKGFMVQTGDPTGTGRGGNSIWGKKFEDEYSEYLKHNVRGVVSMANNGPNTNGSQFFITYGKQPHLDMKYTVFGKVIDGLETLDELEKLPVNEKTYRPLNDVHIKDITIHANPFAQ [PPIL3]”, the thermal stability score was 1.02 in series [1] (setting [5]) and 1.31 in series [1] (cell cycle stage: mitosis). Also, the “solubility change mitosis (log2)” value in series [2] is -0.00294. The “solubility in G1/S (log2)” value in series [3] is 0.455. The melting temperature in series [4] (cell cycle stage: G1/S) came out at 48.9 °C; in series [4] (cell cycle stage: mitosis), 50 °C.
With “MSYDRAITVFSPDGHLFQVEYAQEAVKKGSTAVGVRGRDIVVLGVEKKSVAKLQDERTVRKICALDDNVCMAFAGLTADARIVINRARVECQSHRLTVEDPVTVEYITRYIASLKQRYTQSNGRRPFGISALIVGFDFDGTPRLYQTDPSGTYHAWKANAIGRGAKSVREFLEKNYTDEAIETDDLTIKLVIKALLEVVQSGGKNIELAVMRRDQSLKILNPEEIEKYVAEIEKEKEENEKKKQKKAS [PSMA7]”, the thermal stability score in series [1] (setting [5]) was -1.05; in series [1] (cell cycle stage: mitosis) it was -2.15. The “solubility change mitosis (log2)” value in series [2] was -0.0151. Also, in series [3], the “solubility in G1/S (log2)” value was 0.332. Moreover, the melting temperature in series [4] (cell cycle stage: G1/S) came to 59 °C; in series [4] (cell cycle stage: mitosis), 62.2 °C.
On to “MSYTGFVQGSETTLQSTYSDTSAQPTCDYGYGTWNSGTNRGYEGYGYGYGYGQDNTTNYGYGMATSHSWEMPSSDTNANTSASGSASADSVLSRINQRLDMVPHLETDMMQGGVYGSGGERYDSYESCDSRAVLSERDLYRSGYDYSELDPEMEMAYEGQYDAYRDQFRMRGNDTFGPRAQGWARDARSGRPMASGYGRMWEDPMGARGQCMSGASRLPSLFSQNIIPEYGMFQGMRGGGAFPGGSRFGFGFGNGMKQMRRTWKTWTTADFRTKKKKRKQGGSPDEPDSKATRTDCSDNSDSDNDEGTEGEATEGLEGTEAVEKGSRVDGEDEEGKEDGREEGKEDPEKGALTTQDENGQTKRKLQAGKKSQDKQKKRQRDRMVERIQFVCSLCKYRTFYEDEMASHLDSKFHKEHFKYVGTKLPKQTADFLQEYVTNKTKKTEELRKTVEDLDGLIQQIYRDQDLTQEIAMEHFVKKVEAAHCAACDLFIPMQFGIIQKHLKTMDHNRNRRLMMEQSKKSSLMVARSILNNKLISKKLERYLKGENPFTDSPEEEKEQEEAEGGALDEGAQGEAAGISEGAEGVPAQPPVPPEPAPGAVSPPPPPPPEEEEEGAVPLLGGALQRQIRGIPGLDVEDDEEGGGGAP [AKAP8L]”, for which the values for the thermal stability score in series [1] (setting [5]) and in series [1] (cell cycle stage: mitosis) were 0.782 and 1.54, respectively. Also, in series [2], the “solubility change mitosis (log2)” value worked out at 0.0856. Besides, the “solubility in G1/S (log2)” value in series [3] is -0.123. Moreover, the melting temperature is 47.1 °C in series [4] (cell cycle stage: G1/S) and 48.8 °C in series [4] (cell cycle stage: mitosis).
For the sequence “MTAAENVCYTLINVPMDSEPPSEISLKNDLEKGDVKSKTEALKKVIIMILNGEKLPGLLMTIIRFVLPLQDHTIKKLLLVFWEIVPKTTPDGRLLHEMILVCDAYRKDLQHPNEFIRGSTLRFLCKLKEAELLEPLMPAIRACLEHRHSYVRRNAVLAIYTIYRNFEHLIPDAPELIHDFLVNEKDASCKRNAFMMLIHADQDRALDYLSTCIDQVQTFGDILQLVIVELIYKVCHANPSERARFIRCIYNLLQSSSPAVKYEAAGTLVTLSSAPTAIKAAAQCYIDLIIKESDNNVKLIVLDRLIELKEHPAHERVLQDLVMDILRVLSTPDLEVRKKTLQLALDLVSSRNVEELVIVLKKEVIKTNNVSEHEDTDKYRQLLVRTLHSCSVRFPDMAANVIPVLMEFLSDNNEAAAADVLEFVREAIQRFDNLRMLIVEKMLEVFHAIKSVKIYRGALWILGEYCSTKEDIQSVMTEIRRSLGEIPIVESEIKKEAGELKPEEEITVGPVQKLVTEMGTYATQSALSSSRPTKKEEDRPPLRGFLLDGDFFVAASLATTLTKIALRYVALVQEKKKQNSFVAEAMLLMATILHLGKSSLPKKPITDDDVDRISLCLKVLSECSPLMNDIFNKECRQSLSHMLSAKLEEEKLSQKKESEKRNVTVQPDDPISFMQLTAKNEMNCKEDQFQLSLLAAMGNTQRKEAADPLASKLNKVTQLTGFSDPVYAEAYVHVNQYDIVLDVLVVNQTSDTLQNCTLELATLGDLKLVEKPSPLTLAPHDFANIKANVKVASTENGIIFGNIVYDVSGAASDRNCVVLSDIHIDIMDYIQPATCTDAEFRQMWAEFEWENKVTVNTNMVDLNDYLQHILKSTNMKCLTPEKALSGYCGFMAANLYARSIFGEDALANVSIEKPIHQGPDAAVTGHIRIRAKSQGMALSLGDKINLSQKKTSI [COPB1]”, the thermal stability score in series [1] (setting [5]) came to 0.105; in series [1] (cell cycle stage: mitosis), 1.39. Also, in series [2], the “solubility change mitosis (log2)” value was -0.197. Moreover, in series [3], the “solubility in G1/S (log2)” value was -0.149. Moreover, the melting temperature in series [4] (cell cycle stage: G1/S) came out at 51.8 °C; in series [4] (cell cycle stage: mitosis), 51.7 °C.

These data come from the supplement of paper PMC5998384.
